Patent publication US20160145333A1 (Amgen, published 2016)

Tests used:
[1] = target: T1, Mouse CB1 receptor, wild type (mouse, UniProt P47746 1-473); assay: FACS on transfected cells
T1 construct: also called mCB1; V5-mCB1

[2] = target: T2, Human CB1 receptor (cannabinoid receptor-1), wild type (human, UniProt P21554 1-472); assay: method not given
T2 construct: as PerkinElmer hCB1 membranes in the GTP-Eu assay; also called hCB1; huCB1

[3] = target: T2, Human CB1 receptor (cannabinoid …); assay: cell-based or functional assay

T2 sequence (P21554 whole entry): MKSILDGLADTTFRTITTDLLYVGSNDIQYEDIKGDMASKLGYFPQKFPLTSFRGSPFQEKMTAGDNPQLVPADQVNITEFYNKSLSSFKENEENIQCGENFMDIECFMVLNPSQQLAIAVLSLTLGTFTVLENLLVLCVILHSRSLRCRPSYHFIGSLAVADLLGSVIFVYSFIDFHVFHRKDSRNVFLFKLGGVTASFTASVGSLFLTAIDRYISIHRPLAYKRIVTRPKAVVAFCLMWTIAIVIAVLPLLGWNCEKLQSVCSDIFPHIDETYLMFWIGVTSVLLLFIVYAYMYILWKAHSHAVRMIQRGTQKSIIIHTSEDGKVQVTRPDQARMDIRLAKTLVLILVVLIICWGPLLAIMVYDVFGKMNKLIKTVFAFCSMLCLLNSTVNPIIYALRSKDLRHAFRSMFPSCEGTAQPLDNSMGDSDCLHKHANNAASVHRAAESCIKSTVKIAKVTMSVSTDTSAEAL
T1 sequence (P47746 whole entry): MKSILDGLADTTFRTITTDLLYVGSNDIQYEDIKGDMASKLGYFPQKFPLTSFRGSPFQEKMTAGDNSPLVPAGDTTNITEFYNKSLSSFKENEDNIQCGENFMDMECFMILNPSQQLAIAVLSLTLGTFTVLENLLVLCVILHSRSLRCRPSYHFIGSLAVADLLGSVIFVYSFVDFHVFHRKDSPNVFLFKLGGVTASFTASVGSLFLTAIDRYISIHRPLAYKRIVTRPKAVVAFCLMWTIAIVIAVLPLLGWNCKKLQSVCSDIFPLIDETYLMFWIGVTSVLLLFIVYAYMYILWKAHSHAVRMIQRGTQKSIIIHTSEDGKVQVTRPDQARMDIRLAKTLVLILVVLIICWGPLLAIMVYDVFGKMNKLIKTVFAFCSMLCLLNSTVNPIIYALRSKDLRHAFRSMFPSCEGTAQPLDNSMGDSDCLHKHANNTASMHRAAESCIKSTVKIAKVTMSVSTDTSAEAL

B1: CB1 antibody 10D10 (antibody, human IgG2, kappa, V domains shown)
VH: QVQLQESGPGLVKPSQTLSLTCTVSGGSIRRGGDYWSWIRQHPGKGLEWIGYIYYSGSTNYNPSLKSRATISVDTSKNQFSLKLSSVTAADTAVYYCARDYDILTGYSYYYYGMDVWGQGTTVTVSS
VL: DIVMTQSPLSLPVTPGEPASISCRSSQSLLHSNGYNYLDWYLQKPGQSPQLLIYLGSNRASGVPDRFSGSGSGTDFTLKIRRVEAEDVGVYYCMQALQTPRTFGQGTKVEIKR
notes: Xenomouse (human) antibody; also called wild-type 10D10; WT HC / WT LC
[1]
  binding result: no binding
[2]
  Kd: < 200 nM
[3]
  IC50, GTP-Eu assay against anandamide: 10.1 nM
